For one substance, stoichiometry N results are on record in publication PMC6624267.

In the assay the target is CARD11^8–172 (human) (UniProt Q9BXL7). In words: SEC-MALS; CARD11^8–172 alone; measured 36.5 kDa against 39.4 kDa expected for a dimer.

By stoichiometry N is commonly meant the number of molecules, sites or subunits per partner or assembly. The substance “CARD11^8–172 (from UniProt Q9BXL7 8-172) (domain or fragment)” came in with a stoichiometry N of 2.
